From patent US20140322218A1 (Amgen, published 2014)

T1: Cyno Cadherin-19 (cynomolgus monkey (Macaca fascicularis), UniProt Q9H159 44-772 (human entry))
T1 construct: also called cyno CDH19; cynomologous CDH-19
T1 chain: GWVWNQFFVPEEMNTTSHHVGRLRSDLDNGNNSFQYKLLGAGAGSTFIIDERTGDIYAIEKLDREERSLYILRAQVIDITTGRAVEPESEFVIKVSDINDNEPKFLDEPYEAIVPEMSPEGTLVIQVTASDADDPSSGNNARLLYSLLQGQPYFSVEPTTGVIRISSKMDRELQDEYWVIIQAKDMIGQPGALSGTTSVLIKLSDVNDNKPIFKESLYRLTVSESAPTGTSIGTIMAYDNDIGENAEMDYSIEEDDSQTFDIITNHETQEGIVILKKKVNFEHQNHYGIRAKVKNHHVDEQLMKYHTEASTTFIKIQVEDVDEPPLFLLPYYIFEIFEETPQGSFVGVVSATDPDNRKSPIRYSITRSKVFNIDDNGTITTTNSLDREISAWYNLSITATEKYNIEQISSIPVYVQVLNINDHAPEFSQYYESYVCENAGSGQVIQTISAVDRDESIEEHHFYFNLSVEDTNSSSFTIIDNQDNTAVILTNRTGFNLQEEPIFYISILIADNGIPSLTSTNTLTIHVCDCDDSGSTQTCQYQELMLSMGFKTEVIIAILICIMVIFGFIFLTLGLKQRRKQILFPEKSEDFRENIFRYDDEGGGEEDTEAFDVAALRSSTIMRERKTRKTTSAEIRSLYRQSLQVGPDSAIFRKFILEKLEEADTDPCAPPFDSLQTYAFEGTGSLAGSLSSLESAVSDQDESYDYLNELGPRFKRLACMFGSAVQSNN

T2: (1-43)::FLAG::muCDH19(44-323)::raCDH19(324-327)::muCDH19(328-770), on 293T cells (mouse/rat chimera)
T2 construct: Entry holds leader (1-43), Flag tag and CDH19 part; leader left out; also called Ra EC3c
T2 chain: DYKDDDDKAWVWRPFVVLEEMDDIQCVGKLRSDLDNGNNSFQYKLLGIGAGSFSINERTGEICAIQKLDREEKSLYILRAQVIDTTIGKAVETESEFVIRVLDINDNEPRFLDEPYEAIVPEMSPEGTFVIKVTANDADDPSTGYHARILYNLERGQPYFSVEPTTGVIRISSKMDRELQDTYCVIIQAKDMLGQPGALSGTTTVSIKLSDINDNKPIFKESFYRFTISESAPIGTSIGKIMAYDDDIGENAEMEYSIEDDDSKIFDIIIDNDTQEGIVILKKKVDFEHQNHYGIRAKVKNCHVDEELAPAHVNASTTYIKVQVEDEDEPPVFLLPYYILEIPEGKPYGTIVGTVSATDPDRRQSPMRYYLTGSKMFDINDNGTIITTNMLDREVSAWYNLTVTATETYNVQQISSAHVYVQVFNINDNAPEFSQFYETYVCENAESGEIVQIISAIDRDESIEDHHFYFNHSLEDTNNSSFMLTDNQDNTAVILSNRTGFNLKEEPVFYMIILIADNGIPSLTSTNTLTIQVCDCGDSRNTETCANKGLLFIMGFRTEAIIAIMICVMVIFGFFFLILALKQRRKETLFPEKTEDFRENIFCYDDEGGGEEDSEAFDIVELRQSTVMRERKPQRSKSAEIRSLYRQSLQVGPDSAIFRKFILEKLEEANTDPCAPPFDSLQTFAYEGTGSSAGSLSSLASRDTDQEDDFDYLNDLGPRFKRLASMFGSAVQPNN

T3: rhCDH19(1-43)::FLAG::rhCDH19(44-141)::raCDH19(140-247)::rhCDH19(250-772), on 293T cells (rhesus macaque/rat chimera, UniProt Q9H159 44-772 (human entry))
T3 construct: Entry holds leader (1-43), Flag tag and CDH19 part; leader left out; also called ra EC2 (rhesus backbone)
T3 chain: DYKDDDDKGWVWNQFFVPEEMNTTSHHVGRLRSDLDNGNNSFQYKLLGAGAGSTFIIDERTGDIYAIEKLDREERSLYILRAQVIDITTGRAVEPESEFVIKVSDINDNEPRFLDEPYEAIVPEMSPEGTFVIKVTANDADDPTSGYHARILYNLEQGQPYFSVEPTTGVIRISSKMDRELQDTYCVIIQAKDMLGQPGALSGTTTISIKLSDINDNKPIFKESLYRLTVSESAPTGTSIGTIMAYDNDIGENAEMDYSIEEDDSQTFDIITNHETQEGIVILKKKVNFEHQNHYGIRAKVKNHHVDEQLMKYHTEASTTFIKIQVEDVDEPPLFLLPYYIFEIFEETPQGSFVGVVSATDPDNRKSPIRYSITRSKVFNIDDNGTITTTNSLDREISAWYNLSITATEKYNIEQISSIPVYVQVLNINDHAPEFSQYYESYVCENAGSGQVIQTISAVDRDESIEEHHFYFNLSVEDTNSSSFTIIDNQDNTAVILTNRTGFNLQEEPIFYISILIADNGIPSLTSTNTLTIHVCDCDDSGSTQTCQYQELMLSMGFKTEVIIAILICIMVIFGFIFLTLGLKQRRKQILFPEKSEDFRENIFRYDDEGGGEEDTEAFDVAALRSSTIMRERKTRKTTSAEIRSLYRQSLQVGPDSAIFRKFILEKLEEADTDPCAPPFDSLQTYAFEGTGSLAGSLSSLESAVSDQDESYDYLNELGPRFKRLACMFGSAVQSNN

B1: anti-CDH19 antibody 4A2 (Ab ID 13592) (antibody, human IgG1, kappa, V domains shown)
VH: QVQLQESGPGLVKPSQTLSLTCTVSGGSISSSGYYWSWIRQHPGKGLEWIGYIYYTGSAYYNPSLKSRVTISVDTSKNQFSLKLSSVTAADTAVYYCARDGSSGWYFQYWGQGTLVTVSS
VL: EIVLTQSPGTLSLSPGERATLSCRASRNISSSYLAWYQQKPGQAPRLLIYGPSSRATGIPDRFSGSGSGTDFTLTISRLEPEDFTVYYCQQYGSSFTFGPGTKVDIKR
B2: anti-CDH19 antibody 2G6 (Ab ID 13588) (antibody, human IgG1, lambda, V domains shown)
VH: QVQLVESGGGVVQPGRSLRLSCAASGFTFSSYGMHWVRQAPGKGLEWVAFIWYDGSNKYYADSVKDRFTISRDNSKNTLYLQMKSLRAEDTAVYYCARRAGIIGTIGYYYGMDVWGQGTTVTVSS
VL: SYELTQPPSVSVSPGQTASITCSGDRLGEKYTCWYQQRPGQSPLLVIYQDTKRPSGIPERFSGSNSGNTATLTISGTQAMDEADYYCQAWDSSTVVFGGGTKLTVLG
B3: hu anti-<huCDH19> 25F8.1 (1-469)(F90Y) VH::huIgG1z / 25F8.1 (1-235)(K45Q,S102A,D111E) VL::huLLC-C2 (Ab ID 14096) (antibody, V domains shown)
VH: QVQLVQSGAEVKKPGASVKVSCKASGYTFTSYYIHWVRQAPGQGLEWMGIINPSGGSTRYAQKFQGRVTMTRDTSTSTVYMELSSLRSEDTAVYYCARGGIQLWLHFDYWGQGTLVTVSS
VL: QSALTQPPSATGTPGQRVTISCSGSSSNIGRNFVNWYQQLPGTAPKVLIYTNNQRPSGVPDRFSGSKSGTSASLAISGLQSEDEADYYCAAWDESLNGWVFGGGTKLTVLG
notes: Engineered variant of 25F8
B4: hu anti-<huCDH19> 26D1.1 VH::huIgG1z / 26D1.1 VL::huLLC-C2 (Ab ID 13882) (antibody, V domains shown)
VH: QVQLVQSGAEVKKPGASVKVSCKASRYTFTSYYMSWVRQAPGQGLEWMGIIHPSGGDTTYAQKFQGRVTMTGDTSTSTVYMELSSLRSEDTAVYYCARGGIKLWLHFDYWGQGTLVTVSS
VL: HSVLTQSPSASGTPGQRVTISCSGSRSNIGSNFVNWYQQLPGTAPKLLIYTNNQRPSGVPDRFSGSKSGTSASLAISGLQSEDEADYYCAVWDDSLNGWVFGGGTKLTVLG
B5: hu anti-<huCDH19> 4B10 VH::huIgG1z / 4B10 VL::huKLC (Ab ID 13590) (antibody, V domains shown)
VH: QVQLVESGGGVVQPGRSLRLSCAASGFTFSSYDMHWVRQAPGKGLEWVAVISYDGTNEYYADSVKGRFTISRDTSKNTLYLQMNSLRAEDTAVYYCARERYFDWSFDYWGQGTLVSVSS
VL: EIVLTQSPGTLSLSPGERATLSCRASQSVSNTYLAWYHQRPGQAPRLLIYGASSRATGIPDRFSGSGSGTDFALTISSLEPEDFAVYYCQQYSNSWTFGQGTKVEIKR
B6: hu anti-<huCDH19> 4A9 VH::huIgG1z / 4A9 VL::huLLC-C1 (Ab ID 13589) (antibody, V domains shown)
VH: QVQLQESGPGLVKPSETLSLTCTVSGGSISGYYWSWIRQPPGKGLEWFAYFSYSGSTNYNPSLKSRVTLSVDTSKNQFSLKLSSVTAADTAVYYCARNWAFHFDFWGQGTLVTVSS
VL: QSVLTQPPSVSGAPGQRVTISCTGSSSNIGTGYAVHWYQQFPGTAPKLLIYGNNNRPSGVPDRFSGSKSGTSASLAITGLQAEDEADYYCQSYDSRLSGWVFGGGTKLTVLG
notes: Recombinant fully human IgG1

Experiments:
Cyno Cadherin-19 = molecular target: T1, Cyno Cadherin-19; experiment: FACS, recombinant cyno CDH19
[1] = molecular target: T2, (1-43)::FLAG::muCDH19(44-323)::raCDH19(3 …); experiment: FACS, transfected 293T
[2] = molecular target: T3, rhCDH19(1-43)::FLAG::rhCDH19(44-141)::ra …; experiment: FACS, transfected 293T
Method: The following binding assay was completed in presence of 2 mM CaCl2. […] Cells were then washed one time and the amount of cell associated Alexa647-labelled Ab was quantitated by flow cytometry. The experiments included mock transfected controls.

| Binder | binding result (Cyno Cadherin-19) | binding result [1] | binding result [2] |
| --- | --- | --- | --- |
| B1 | binds | – | – |
| B2 | binds | binds | – |
| B3 | – | – | no binding (tested: 5 ug/ml) |
| B4 | binds | – | no binding (tested: 5 ug/ml) |
| B5 | binds | binds | – |
| B6 | binds | – | no binding (tested: 5 ug/ml) |
